Patent US6806056B2, “Fluorescent capture assay for kinase activity employing an anti-phosphotyrosine antibody as both the capture agent and detecting agent” (Pharmacopeia Drug Discovery, Inc., priority 1999, dated 2004)

Assays:
Assay type in all cases: cell-based
Jurkat cells = assay: Anti-phosphotyrosine capture assay of tyrosine kinase activity after SDF-1α stimulation for various times; details: 37° C., 100 nM SDF-1α, various time intervals, FIG. 2
Method: (§1) 96-well polystyrene plates were coated with an anti-phosphotyrosine antibody, pY99 (Santa Cruz Biotech, Inc., Santa Cruz, Calif.), by adding 200 μl of an antibody solution in Tris buffered saline (TBS) pH 8.0 at a concentration of 2.5 μg/ml. The plates were incubated for three hours at room temperature. The plates were then rinsed and 300 μl of blocking solution, sold under the trademark, SUIPERBLOCK® (Pierce Chemical, Rockford, Ill.) was added and the plates were incubated for two hours. At this point, the plates may be stored at 4° C. for up to two weeks. […]
To assay the cell lysates for kinase activity, the plate was thawed at 37° C., and 100 μl of tris buffered saline with 0.1% Tween 20 was added to each well. […] Relative phosphorylated protein levels were detected by adding 100 μl of a 0.2 μg/ml solution of europium-chelate labeled anti-phosphotyrosine antibody in tris buffered saline (pH 8.0) to each well and allowing the plate to incubate for one hour with shaking. […] Enhancement Solution for measuring Eu^3+ (E. G. & G. Wallac, Turku, FI) was added and the amount of labeled antibody bound was measured using a time-resolved fluorescence plate reader, for example, a Wallac 1420, or Victor MLC (Wallac Oy, Turku, FI). […]

Daudi B cells = assay: Anti-phosphotyrosine capture assay (time-resolved fluorescence) of tyrosine phosphorylation in stimulated B-cells; details: ligand 100 ng/ml, 15 minutes, FIG. 1
Method: as §1
(§2) To assay the cell lysates for kinase activity, the plate was thawed at 37° C., and 100 μl of tris buffered saline with 0.1% Tween 20 was added to each well. […] Relative phosphorylated protein levels were detected by adding 100 μl of a 0.2 μg/ml solution of europium-chelate labeled anti-phosphotyrosine antibody in tris buffered saline (pH 8.0) to each well and allowing the plate to incubate for one hour with shaking. […] Enhancement Solution for measuring Eu^3+ (E. G. & G. Wallac, Turku, FI) was added and the amount of labeled antibody bound was measured using a time-resolved fluorescence plate reader, for example, a Wallac 1420, or Victor MLC (Wallac Oy, Turku, FI).

Ramos B cells = assay: as above; details: ligand 100 ng/ml, 15 minutes, FIG. 1
Method: as §1, §2

Molecule	tyrosine kinase activity (fluorescence) as time increases (Jurkat cells)	changes in tyrosine phosphorylation on stimulation (Daudi B cells)	changes in tyrosine phosphorylation on stimulation (Ramos B cells)
SDF-1α	decrease in kinase activity	–	–
IL-4: IL-4, used as a stimulus for Daudi or Ramos B-cells (protein, UniProt P05112 25-153, looked up) Interleukin-4: HKCDITLQEIIKTLNSLTEQKTLCTELTVTDIFAASKNTTEKETFCRAATVLRQFYSHHEKDTRCLGATAQQFHRHKQLIRFLKRLDRNLWGLAGLNSCPVKEANQSTLENFLERLKTIMREKYSKCSS	–	not significantly	not significantly
